Sequences and labels used below:
B1: OR4K15 (parent)
chain: GUUAACGGUCAUAGGCCAUGGAAACUAGGAGCACCAUUUCGCUGCCAGUGAAGAAAUGAACAAAGAAAAUCUGGGCCAGGCAGGCAUCAAAAGAAAUAGUCUUGCGCUCAACCAGAAAGUCUGUAAUCAUUUUAAGGGUA

The text below walks through data of the RNAGym collection of RNA variant scans (doi:10.7554/elife.90254).

In this data set the parent is B1. The experiment in a line: self-cleavage, relative activity (ratio to wild type); higher = more cleavage; in vitro, sequencing; the parent is a self-cleaving ribozyme.
Turning to GUUAACGGUCAUAGGCCAUGGAAACUAGGAGCACCAUUUCGCUGCCAGAGAAGAAAUGAACAAAGAAAAUCUGGGCCAGGCAGGCAUCAAAAGAAAUAGUCAUGCGCUCAACCAGAAAGUCUGUAAUCAUUUUAAGGGUA, the self-cleavage turned out to be 0.95.

As to GUUAACGGUCAUAGGCCAUGGAAACUAGGAGCACCAUUUCGCUGCCAGAGAAGAAAUGAACAAAGAAAAUCUGGGCCAGGCAGGCAUCAAAAGAAAUAGUCUUGCGCUCAACCAGAAAGUCAGUAAUCAUUUUAAGGGUA, the self-cleavage was determined as 1.32.

Turning to GUUAACGGUCAUAGGCCAUGGAAACUAGGAGCACCAUUUCGCUGCCAGAGAAGAAAUGAACAAAGAAAAUCUGGGCCAGGCAGGCAUCAAAAGAAAUAGUCUUGCGCUCAACCAGAAAGUCCGUAAUCAUUUUAAGGGUA, the self-cleavage came to 0.56.

With GUUAACGGUCAUAGGCCAUGGAAACUAGGAGCACCAUUUCGCUGCCAGAGAAGAAAUGAACAAAGAAAAUCUGGGCCAGGCAGGCAUCAAAAGAAAUCGUCUUGCGCUCAACCAGAAAGUCUGUAAUCAUUUUAAGGGUA, the self-cleavage is 1.58.

Turning to GUUAACGGUCAUAGGCCAUGGAAACUAGGAGCACCAUUUCGCUGCCAGAGAAGAAAUGAACAAAGAAAAUCUGGGCCAGGCAGGCAUCAAAAGAAAUAGUCUUGCGCUCAACCGGAAAGUCUGUAAUCAUUUUAAGGGUA, the self-cleavage is 0.25.

On to GUUAACGGUCAUAGGCCAUGGAAACUAGGAGCACCAUUUCGCUGCCAGAGAAGAAAUGAACAAAGAAAAUCUGGGCCAGGCGGGCAUCAAAAGAAAUAGUCUUGCGCUCAACCAGAAAGUCUGUAAUCAUUUUAAGGGUA, for which the self-cleavage is 0.52.

On to GUUAACGGUCAUAGGCCAUGGAAACUAGGAGCACCAUUUCGCUGCCAGAGAAGAAAUGAACAAAGAAAAUCUGGGCCAGGCAGGCAUCAAAAGAAAUAGUCUUGCGCUCAACCAGAAAGUCUGUAAUCGUUUUAAGGGUA, for which the self-cleavage was 0.63.

Regarding GUUAACGGUCAUAGGCCAUGGAAACUAGGAGCACCAUUUCGCUGCCAGCGAAGAAAUGAACAAAGAAAAUCUGGGCCAGGCAGGCAUCAAAAGAAAUAGUCUUGCGCUCAACCAGAAAGUCUGUAAUCAUUUUAAGGGUA, the self-cleavage came out at 1.12.

GUUAACGGUCAUAGGCCAUGGAAACUAGGAGCACCAUUUCGCUGCCAGAGAAGAAAUGAACAAAGAAAAUCGGGGCCAGGCAGGCAUCAAAAGAAAUAGUCUUGCGCUCAACCAGAAAGUCUGUAAUCAUUUUAAGGGUA: the self-cleavage stood at 0.14.

Consider GUUAACGGUCAUAGGCCAUGGAAACUAGGAGCACCAUUUCGCUGCCAGAGAAGAAAUGAACAAAGAAAAUCUGGGCCAGGCAGGCGUCAAAAGAAAUAGUCUUGCGCUCAACCAGAAAGUCUGUAAUCAUUUUAAGGGUA, for which the self-cleavage came out at 1.19.

GUUAACGGUCAUAGGCCAUGGAAACUAGGAGCACCAUUUCGCUGCCAGAGAAGAAAUGAACAAAGAAAAUCUGGGCCAGGCAGGCAUCAAAAGAAAUAGUCUUGCGCCCAACCAGAAAGUCUGUAAUCAUUUUAAGGGUA: the self-cleavage amounted to 0.01.

As to GUUAACGGUCAUAGGCCAUGGAAACUAGGAGCACCAUUUCGCUGCCAGAGAAGAAAUGAACAAAGAAAAUCUGGGCCAGGCAGGCAUCAAAAGAAAUAGUCUUGCGCACAACCAGAAAGUCUGUAAUCAUUUUAAGGGUA, the self-cleavage turned out to be 0.02.

On to GUUAACGGUCAUAGGCCAUGGAAACUAGGAGCACCAUUUCGCUGCCAGCGAGGAAAUGAACAAAGAAAAUCUGGGCCAGGCAGGCAUCAAAAGAAAUAGUCUUGCGCUCAACCAGAAAGUCUGUAAUCAUUUUAAGGGUA, for which the self-cleavage was 1.16.

Turning to GUUAACGGUCAUAGGCCAUGGAAACUAGGAGCACCAUUUCGCUGCCAGAGAAGAAAUGAACAAAGAAAACCUGGGCCAGGCAGGCAUCAAAAGAAAUAGUCUUGCGCUCAACCAGAAAGUCUGUAAUCAUUUUAAGGGUA, the self-cleavage came to 0.3.

Turning to GUUAACGGUCAUAGGCCAUGGAAACUAGGAGCACCAUUUCGCUGCCAGAGAAGAAAUGAACAAAGAAAAUCUGGGCCAGGCAGGCAUCAAAAGAAAUAGUCUUGCGCUCAACCAGAAUGUCUGUAAUCAUUUUAAGGGUA, the self-cleavage came to 0.7.

With GUUAACGGUCAUAGGCCAUGGAAACUAGGAGCACCAUUUCGCUGCCAGAGAAGAAAUGAACAAAGAAAAUCUGGGCCAGGCAGGCAUCAAAAGAAAUAGUCUUGCGCUCAACCAGAAAGUCUGUAAUCAUUUUAGGGGUA, the self-cleavage stood at 1.08.

On to GUUAACGGUCAUAGGCCAUGGAAACUAGGAGCACCAUUUCGCUGCCAGAGAAGAAAUGAACAAAGAAAAUCUGGGCCAAGCAGGCAUCAAAAGAAAUAGUCUUGCGCUCAACCAGAAAGUCUGUAAUCAUUUUAAGGGUA, for which the self-cleavage is 0.12.

GUUAACGGUCAUAGGCCAUGGAAACUAGGAGCACCAUUUCGCUGCCAGCGAAGAACUGAACAAAGAAAAUCUGGGCCAGGCAGGCAUCAAAAGAAAUAGUCUUGCGCUCAACCAGAAAGUCUGUAAUCAUUUUAAGGGUA: the self-cleavage came out at 1.25.

With GUUAACGGUCAUAGGCCAUGGAAACUAGGAGCACCAUUUCGCUGCCAGCGAAGAAGUGAACAAAGAAAAUCUGGGCCAGGCAGGCAUCAAAAGAAAUAGUCUUGCGCUCAACCAGAAAGUCUGUAAUCAUUUUAAGGGUA, the self-cleavage is 1.57.

With GUUAACGGUCAUAGGCCAUGGAAACUAGGAGCACCAUUUCGCUGCCAGCGGAGAAAUGAACAAAGAAAAUCUGGGCCAGGCAGGCAUCAAAAGAAAUAGUCUUGCGCUCAACCAGAAAGUCUGUAAUCAUUUUAAGGGUA, the self-cleavage is 0.9.

For GUUAACGGUCAUAGGCCAUGGAAACUAGGAGCACCAUUUCGCUGCCAGCGCAGAAAUGAACAAAGAAAAUCUGGGCCAGGCAGGCAUCAAAAGAAAUAGUCUUGCGCUCAACCAGAAAGUCUGUAAUCAUUUUAAGGGUA, the self-cleavage turned out to be 0.34.

Turning to GUUAACGGUCAUAGGCCAUGGAAACUAGGAGCACCAUUUCGCUGCCAGCGUAGAAAUGAACAAAGAAAAUCUGGGCCAGGCAGGCAUCAAAAGAAAUAGUCUUGCGCUCAACCAGAAAGUCUGUAAUCAUUUUAAGGGUA, the self-cleavage was determined as 0.99.

Consider GUUAACGGUCAUAGGCCAUGGAAACUAGGAGCACCAUUUCGCUGCCAGAGAAGAAAUGAACAAAGAAAAUCUGGGCCAGGCAGGCAUCAGAAGAAAUAGUCUUGCGCUCAACCAGAAAGUCUGUAAUCAUUUUAAGGGUA, for which the self-cleavage stood at 0.81.

As for GUUAACGGUCAUAGGCCAUGGAAACUAGGAGCACCAUUUCGCUGCCAGAGAAGAAAUGAACAAAGAAAAUCUGGGCCAGGCAGGCAUCAAAAGAAAUAGUCUUGCGCUCAACCAGAAAGUCUGUAUUCAUUUUAAGGGUA, the self-cleavage is 1.59.

As for GUUAACGGUCAUAGGCCAUGGAAACUAGGAGCACCAUUUCGCUGCCAGAGAAGAAAUGAACAAAGAAAAUCUGGGCCAGGCAGGCAUCGAAAGAAAUAGUCUUGCGCUCAACCAGAAAGUCUGUAAUCAUUUUAAGGGUA, the self-cleavage worked out at 0.47.

For the variant GUUAACGGUCAUAGGCCAUGGAAACUAGGAGCACCAUUUCGCUGCCAGAGAAGAAAUGAACAAAGAAAAUCUGGGCCAGGCAGGCAUCAAAAGAAAUAGUCUUGCGCUCAACCAGAAAGUCUGUAAUCAUUUUAAGGGCA, the self-cleavage came to 1.97.

Consider GUUAACGGUCAUAGGCCAUGGAAACUAGGAGCACCAUUUCGCUGCCAGCGAAGAUAUGAACAAAGAAAAUCUGGGCCAGGCAGGCAUCAAAAGAAAUAGUCUUGCGCUCAACCAGAAAGUCUGUAAUCAUUUUAAGGGUA, for which the self-cleavage turned out to be 1.67.

As to GUUAACGGUCAUAGGCCAUGGAAACUAGGAGCACCAUUUCGCUGCCAGAGAAGAAAUGAACAAAGAAAAUCUGGGCCAGGCAGGCAUCAAAAGAAAUAGUCUUGCGCUCACCCAGAAAGUCUGUAAUCAUUUUAAGGGUA, the self-cleavage came out at 0.01.

GUUAACGGUCAUAGGCCAUGGAAACUAGGAGCACCAUUUCGCUGCCAGAGAAGAAAUGAACAAAGAAAAUCUGGGCCAGGCAGGCAUCAAAAGAAAUAGUCUUGCGCUCAGCCAGAAAGUCUGUAAUCAUUUUAAGGGUA: the self-cleavage turned out to be 0.01.

As to GUUAACGGUCAUAGGCCAUGGAAACUAGGAGCACCAUUUCGCUGCCAGAGAAGAAAUGAACAAAGAAAAUCUGGGCCAGGCAGGCAUCAAAAGAAAUAGUCUUGCGCUCAACCAGAGAGUCUGUAAUCAUUUUAAGGGUA, the self-cleavage worked out at 0.49.

Turning to GUUAACGGUCAUAGGCCAUGGAAACUAGGAGCACCAUUUCGCUGCCAGAGAAGAAAUGAACAAAGAAAAUCUGAGCCAGGCAGGCAUCAAAAGAAAUAGUCUUGCGCUCAACCAGAAAGUCUGUAAUCAUUUUAAGGGUA, the self-cleavage is 0.24.

In the case of GUUAACGGUCAUAGGCCAUGGAAACUAGGAGCACCAUUUCGCUGCCAGAGAAGAAAUGAACAAAGAAAAUCUGGGCCAGGCAGGCAACAAAAGAAAUAGUCUUGCGCUCAACCAGAAAGUCUGUAAUCAUUUUAAGGGUA, the self-cleavage was determined as 1.78.

For GUUAACGGUCAUAGGCCAUGGAAACUAGGAGCACCAUUUCGCUGCCAGAGAAGAAAUGAACAAAGAAAAUCUGGGCCAGGCAGGCACCAAAAGAAAUAGUCUUGCGCUCAACCAGAAAGUCUGUAAUCAUUUUAAGGGUA, the self-cleavage worked out at 0.22.

In the case of GUUAACGGUCAUAGGCCAUGGAAACUAGGAGCACCAUUUCGCUGCCAGAGAAGAAAGGAACAAAGAAAAUCUGGGCCAGGCAGGCAUCAAAAGAAAUAGUCUUGCGCUCAACCAGAAAGUCUGUAAUCAUUUUAAGGGUA, the self-cleavage was 0.46.

Turning to GUUAACGGUCAUAGGCCAUGGAAACUAGGAGCACCAUUUCGCUGCCAGAGAAGAAACGAACAAAGAAAAUCUGGGCCAGGCAGGCAUCAAAAGAAAUAGUCUUGCGCUCAACCAGAAAGUCUGUAAUCAUUUUAAGGGUA, the self-cleavage came to 1.11.

As to GUUAACGGUCAUAGGCCAUGGAAACUAGGAGCACCAUUUCGCUGCCAGAGAAGAAAUGAACAAAGAAAAUCUGGGCCAGGCAGGCAUCAAAAGAAAUAGUCUUGCGCUCAACCAGAAAGUCUGUAAUCAUCUUAAGGGUA, the self-cleavage came out at 1.01.

On to GUUAACGGUCAUAGGCCAUGGAAACUAGGAGCACCAUUUCGCUGCCAGAGAAGAAAUGAACAAAGAAAAUCUGGGCCAGGCAGGCAUCAAAAGAGAUAGUCUUGCGCUCAACCAGAAAGUCUGUAAUCAUUUUAAGGGUA, for which the self-cleavage worked out at 1.76.

As to GUUAACGGUCAUAGGCCAUGGAAACUAGGAGCACCAUUUCGCUGCCAGAGAAGAAAUGAAUAAAGAAAAUCUGGGCCAGGCAGGCAUCAAAAGAAAUAGUCUUGCGCUCAACCAGAAAGUCUGUAAUCAUUUUAAGGGUA, the self-cleavage was 1.38.

On to GUUAACGGUCAUAGGCCAUGGAAACUAGGAGCACCAUUUCGCUGCCAGAGAAGAAAUGAACAAAGAAAAUCUGGGCCAGGCAGGCAUCAAAAGAAAUAGUCUUGCGCUCAACCAGAAAGUCUGUAAUCAUUUUAAGGGUG, for which the self-cleavage turned out to be 1.41.

For GUUAACGGUCAUAGGCCAUGGAAACUAGGAGCACCAUUUCGCUGCCAGAGAAGAAAUGAACAAAGAAAAUCUGGCCCAGGCAGGCAUCAAAAGAAAUAGUCUUGCGCUCAACCAGAAAGUCUGUAAUCAUUUUAAGGGUA, the self-cleavage worked out at 0.07.

On to GUUAACGGUCAUAGGCCAUGGAAACUAGGAGCACCAUUUCGCUGCCAGAGAAGAAAUGAACAAAGAAAAUCUGGGCCAGGCAGGCAUCAAAAGAAAUAGUCUUGCGCUCAACCAGGAAGUCUGUAAUCAUUUUAAGGGUA, for which the self-cleavage was found to be 0.3.
